Measured values from patent US20230348572A1 (ROSALIND FRANKLIN INSTITUTE, published 2023).
Like-named read-outs stand apart in the source and are kept apart here.

Experiments:
[1] = molecular target: T1, SARS-CoV-2 Spike receptor binding domain (RBD, amino acids 330-532) (SARS-CoV-2, UniProt P0DTC2 330-532); assay: phage ELISA on biotinylated RBD captured on neutravidin, anti-M13-HRP
T1 construct: range 330-532

RBD-Fc [2] = molecular target: T2, RBD-Fc (SARS-CoV-2; human, UniProt P0DTC2 330-532)
RBD-Fc [3] = molecular target: T2, RBD-Fc; remark: listed apart in the source
RBD-Fc [4] = molecular target: T2, RBD-Fc; remark: listed apart in the source
[5] = molecular target: T1, SARS-CoV-2 Spike receptor binding …
[6] = molecular target: T1, SARS-CoV-2 Spike receptor binding …; assay: ITC, nanobody titrated into RBD, 25 °C, 1:1 stoichiometry
[7] = molecular target: T1, SARS-CoV-2 Spike receptor binding …; assay: ITC, RBD in the cell, H11-H4 in the syringe
RBD-Fc [8] = molecular target: T2, RBD-Fc; assay: SPR single-cycle kinetics, RBD-Fc on Protein A chip, nanobody as analyte
[9] = molecular target: T1, SARS-CoV-2 Spike receptor binding …; remark: listed apart in the source
RBD-Fc [10] = molecular target: T2, RBD-Fc; assay: SPR, single-cycle kinetics, RBD-Fc immobilized, H11-D4 as analyte, run i)
RBD-Fc [11] = molecular target: T2, RBD-Fc; assay: SPR, single-cycle kinetics, RBD-Fc immobilized, H11-D4 as analyte, run ii)

B1: NbRBD_G11 (VHH)
VHH: QVHLVESGGGLVQPGGSLRLSCAASGFTFDDYGMTWVRQAPGKGLEWVSAVNSGGGTSYADSVKGRFTISRDNAKNTLYLQMNSLKPEDTAVYYCAKRDGSWWGYTTDYWGKGTQVTVSS
How did the “ELISA A405” value [1] turn out when B1 was run?
The value was > 1.5.

B2: NbRDB_E11 (VHH)
VHH: QVQLVESGGGLVQPGGSLRLSCAASGFTFSNYAMTWVRQAPGKGLEWISDIGSDGRHPAYADSVKGRYTISRDNAKNTLYLQMNSLKPEDTAMYYCLPGWSTVGTFLDAWGQGTQVTVSS
For B2, which “ELISA A405” value [1] is on record?
The value was > 1.5.

B3: NbRBD_C7 (VHH)
VHH: QVQLVESGGGLVQPGGSLRLSCAASGFTFSSYDMSWVRQAPGKGLEWVSGISGSDSTTVYSDSVKDRFTISRDNAKNTLYLQMNKLKPEDTALYYCARPLGQYTSWGQGTQVTVSS
Which “ELISA A405” value [1] does the source give for B3 here?
Its value is > 1.5.

B4: NbRBD_G9 (VHH)
VHH: QVQLVESGGGLVQPGGSLRLSCAASGFTFYDYHMSWVRQAPGKGLEWVSGIDTGGGRTYAADSVKGRFTISRDNAKNTLYLQMNSLKSEDTALYYCVRDGDARGPDYDYWGQGTMVTVSS
Which “ELISA A405” value [1] does the source give for B4 here?
The value was > 1.5.

B5: NbRBD_D1 (VHH)
VHH: QVQLVESGGGLVQPGGSLRLSCAASGFTFSSYGMSWVRQAPGKGLEWVSGINSGGGSTSYADSVKGRFTISRDNAKNTLYLQMNSLKSEDTAVYYCAKDASEDAGRLYWTDYWGQGTQVTVSS
With B5 as the binder, how does the “ELISA A405” value [1] read?
Its value is > 1.5.

B6: NbRBD_H11 (VHH)
VHH: QVQLVESGGGLMQAGGSLRLSCAVSGRTFSTAAMGWFRQAPGKEREFVAAIRWSGGSAYYADSVKGRFTISRDKAKNTVYLQMNSLKYEDTAVYYCAQTRVTRSLLSDYATWPYDYWGQGTQVTVSS
notes: also called nanobody H11; Nb H11
Which results are given for B6?
Kd (RBD-Fc [2]): < 1 µM; Kd (RBD-Fc [3]): 0.378 µM; ELISA A405 [1]: > 1.5

B7: NbRBD_H11-H4 (VHH)
VHH: QVQLVESGGGLMQAGGSLRLSCAVSGRTFSTAAMGWFRQAPGKEREFVAAIRWSGGSAYYADSVKGRFTISRDKAKNTVYLQMNSLKYEDTAVYYCAQTHYVSYLLSDYATWPYDYWGQGTQVTVSS
notes: also called nanobody H11-H4
How did the Kd (RBD-Fc [4]) turn out when B7 was run?
The Kd was 0.0055 µM.

What about the Kd [5] of the same binder?
The Kd was 0.0118 µM.

And the ΔH [5]?
Its ΔH is -69 kJmol-1.

What about the ΔS [5] of the same binder?
The ΔS was -79 Jmol-1K-1.

What about the Kd [6] of the same binder?
The Kd was 0.012 µM.

And the ΔH [7]?
The ΔH was -67 kJmol-1.

And the ΔS [7]?
Its ΔS is -80 Jmol-1K-1.

And the Kd (RBD-Fc [8])?
Its Kd is ~0.005 µM.

B8: NbRBD_H11-D4 (VHH)
VHH: QVQLVESGGGLMQAGGSLRLSCAVSGRTFSTAAMGWFRQAPGKEREFVAAIRWSGGSAYYADSVKGRFTISRDKAKNTVYLQMNSLKYEDTAVYYCARTENVRSLLSDYATWPYDYWGQGTQVTVSS
notes: also called nanobody H11-D4
What does the source list for B8?
Kd [9]: 0.0392 µM; ΔH [9]: -76.1 kJmol-1; ΔS [9]: -114 Jmol-1K-1; Kd [6]: 0.039 µM; Kd (RBD-Fc [8]): ~0.01 µM; Kd (RBD-Fc [10]): 0.009 µM; Kd (RBD-Fc [11]): 0.01 µM

B9: NbRBD_B4 (VHH)
VHH: QVQLVESGGGLVQPGGSLRLSCAASGFTFSSYWMYWVRQAPGKGLEWVSVINTGGDTTYYADSVKGRFTISRDNDENTLSLQMNSLKPEDTALYYCARTGVVRGPGDLDAWGQGTQVTVSS
How did the “ELISA A405” value [1] turn out when B9 was run?
The value was > 1.5.

B10: NbRBD_F9 (VHH)
VHH: QVQLVESGGGLVQPGGSLRVSCAASGFTFSSYFMSWVRQAPGKQRELVATIGDRGNTNYADSVKGRFTISRDNAKNTVYLQMNSLKPEDTAVYYCYSRNRILQHYWGQGTQVTVSS
How did the “ELISA A405” value [1] turn out when B10 was run?
The value was > 1.5.

B11: NbRBD_F5 (VHH)
VHH: QVQLVESGGGLVQAGGSLRLSCAASGTIFRINAMAWYRQAPGKQRELVAIISNGDSGDSTNYADSVKGRFTISRDSAKNTVYLQMNSLKPEDTAVYYCNVEASWPHKYWGQGTQVTVSS
B11 was tested. Which “ELISA A405” value [1] did it give?
Its value is > 1.5.

B12: NbRBD_G7 (VHH)
VHH: QVQLVESGGGLVQPGGSLRLSCATSGFTFDTYDMSWVRQAPGNGPEWVSAEDSTGNKFYADSVKGRFAISRDNARNTLYLQMNSLTSEDTAVYYCAKGLRSWGAWGQGTQVTVSS
With B12 as the binder, how does the “ELISA A405” value [1] read?
The value was > 1.5.

B13: NbRBD_A7 (VHH)
VHH: QVQLVESGGGLVQPGGSLRLSCAASGFTFDDYAMSWVRQAPGKGLEWVSAISWNGGGTYYAESMKGRFTISRDNAKNTLYLQMNSLKSEDTAVYYCAKDFHRYGSSTLEYDYWGQGTQVTVSS
B13 was tested. Which “ELISA A405” value [1] did it give?
The value was > 1.5.

B14: NbRBD_C10 (VHH)
VHH: QVQLVESGGGLVQPGGSLRLSCAASGFAFSSYDMSWVRQAPGKGLEWVSAIDSGGGVTYYADSMKGRFTISRDNAKNTVYLQMNSLKPEDTAVYYCNAVDGLGYLEYDYWGQGTQVTVSS
B14 was tested. Which “ELISA A405” value [1] did it give?
The value was > 1.5.

B15: NbRBD_B11 (VHH)
VHH: QVQLVESGGGLVQPGGSLRLSCAASGFTFDDYAMSWVRQAPGKGLEWVSNIYSYISTTHYADSVKGRFTISTDNAKNTLYLQMNSLKPEDTAVYYCAARRLDTTDYKYWGQGTQVTVSS
For B15, which “ELISA A405” value [1] is on record?
Its value is > 1.5.
